Assay results from the RNAGym collection of RNA variant scans (doi:10.1093/molbev/msab373).

B1: Azoarcus group I ribozyme (parent)
chain: GUGCCUUGCGCCGGGAAACCACGCAAGGGAUGGUGUCAAAUUCGGCGAAACCUAAGCGCCCGCCCGGGCGUAUGGCAACGCCGAGCCAAGCUUCGGCGCCUGCGCCGAUGAAGGUGUAGAGACUAGACGGCACCCACCUAAGGCAAACGCUAUGGUGAAGGCAUAGUCCAGGGAGUGGCGAAAGUCACACAAACCGG

Variants of: B1
Assay: reverse-splicing fitness (ratio to wild type); higher = more active; in vitro selection; Mg2+ level not given
How it was run: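 An in vitro group I ribozyme library with randomized positions was T7-transcribed and gel-purified. In triplicate, 10 pmol RNA in EPPS pH 7.5 was reacted with 50 pmoles of a 30-nt RNA substrate for 1 h at 37 °C across several added MgCl2 levels (1–48 mM), then stopped with EDTA. Products were reverse transcribed from a substrate-complementary primer, PCR-amplified and sequenced (HiSeq 4000). Fitness is a variant's read proportion after selection over that before, normalised to wild type.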

Row | Variant | reverse-splicing fitness
1 | C82G A111G A120U A145C C169G U176G | 0.00165
2 | C82G A111G A120U A145C C169G U176A | 0.00244
3 | C82G A111G A120U A145C C169G U176C | 0.00181
4 | C82G A111G A120U A145G C150G C169U | 0.00737
5 | C82G A111G A120U A145G C150G C169G | 0.00722
6 | C82G A111G A120U A145G C150G C169A | 0.00921
7 | C82G A111G A120U A145C C150A C169U | 0.00246
8 | C82G A111G A120U A145C C150A C169G | 0.00251
9 | C82G A111G A120U A145U C150A U176A | 0.00578
10 | C82G A111G A120U A145U C150A U176G | 0.00244
11 | C82G A111G A120U A145U C150A U176C | 0.00553
12 | C82G A111G A120U A145G C150A C169U | 0.00426
13 | C82G A111G A120U A145G C150A C169A | 0.00593
14 | C82G A111G A120U A145G C150A C169G | 0.00639
15 | C82G A111G A120U A145U C150U C169G | 0.00324
16 | C82G A111G A120U A145U C150U C169U | 0.00393
17 | C82G A111G A120U A145U C150U C169A | 0.00289
18 | C82G A111G A120U A145C C150G C169A U176C | 0.00236
19 | C82G A111G A120U A145C C150G C169A U176G | 0.00183
20 | C82G A111G A120U A145C C150G C169A U176A | 0.00237
21 | C82G A111G A120U A145U C150A C169U U176C | 0.0029

Row | Variant | reverse-splicing fitness
22 | C82G A111G A120U A145U C150A C169U U176G | 0.00215
23 | C82G A111G A120U A145U C150A C169U U176A | 0.00305
24 | C82G A111G A120U A145C C150A C169U U176A | 0.00266
25 | C82G A111G A120U A145C C150A C169U U176C | 0.00238
26 | C82G A111G A120U A145C C150A C169U U176G | 0.0019
27 | C82G A111G A120U A145U C150U C169U U176A | 0.00291
28 | C82G A111G A120U A145G C150U C169G U176C | 0.00595
29 | C82G A111G A120U A145G C150U C169G U176G | 0.00241
30 | C82G A111G A120U A145G C150U C169G U176A | 0.0105
31 | C82G A111G A120U A145G C150G C169U U176G | 0.00375
32 | C82G A111G A120U A145G C150G C169U U176A | 0.00708
33 | C82G A111G A120U A145G C150G C169U U176C | 0.009
34 | C82G A111G A120U A145G C150A C169A U176G | 0.00251
35 | C82G A111G A120U A145G C150A C169A U176C | 0.00503
36 | C82G A111G A120U A145G C150A C169A U176A | 0.00843
37 | C82G A111G A120U A145U C150A C169A U176G | 0.00211
38 | C82G A111G A120U A145U C150A C169A U176C | 0.00223
39 | C82G A111G A120U A145U C150A C169A U176A | 0.00256
40 | C82G A111G A120U A145U C150U C169A U176A | 0.00294
41 | C82G A111G A120U A145U C150U C169A U176G | 0.00186
42 | C82G A111G A120U A145U C150U C169A U176C | 0.00239

Row | Variant | reverse-splicing fitness
43 | C82G A111G A120U A145G C169A U176A | 0.00574
44 | C82G A111G A120U A145G C169A U176C | 0.00535
45 | C82G A111G A120U A145G C169A U176G | 0.00176
46 | C82G A111G A120U A145C C150A U176C | 0.00344
47 | C82G A111G A120U A145C C150A U176G | 0.00169
48 | C82G A111G A120U A145C C150A U176A | 0.00245
49 | C82G A111G A120U A145C C150U U176G | 0.00303
50 | C82G A111G A120U A145C C150U U176A | 0.00647
51 | C82G A111G A120U A145C C150U U176C | 0.00541
52 | C82G A111G A120U A145C C150G U176G | 0.00247
53 | C82G A111G A120U A145C C150G U176A | 0.00327
54 | C82G A111G A120U A145C C150G U176C | 0.00396
55 | C82G A111G A120U A145U C150A | 0.00764
56 | C82G A111G A120U A145U C150U | 0.04
57 | C82G A111G A120U A145U C150G | 0.00894
58 | C82G A111G A120U A145C C150U C169A U176A | 0.00272
59 | C82G A111G A120U A145C C150U C169A U176G | 0.00197
60 | C82G A111G A120U A145C C150U C169A U176C | 0.00184
61 | C82G A111G A120U A145C C150G C169G | 0.0027
62 | C82G A111G A120U A145C C150G C169U | 0.00296
63 | C82G A111G A120U A145C C150G C169A | 0.00256

Row | Variant | reverse-splicing fitness
64 | C82G A111G A120U A145G C150A C169U U176G | 0.00259
65 | C82G A111G A120U A145G C150A C169U U176A | 0.00563
66 | C82G A111G A120U A145G C150A C169U U176C | 0.00452
67 | C82G A111G A120U A145C C150G C169G U176G | 0.00196
68 | C82G A111G A120U A145C C150G C169G U176A | 0.00278
69 | C82G A111G A120U A145C C150G C169G U176C | 0.00228
70 | C82G A111G A120U A145G C150U C169A U176A | 0.00839
71 | C82G A111G A120U A145G C150U C169A U176C | 0.00519
72 | C82G A111G A120U A145G C150U C169A U176G | 0.00254
73 | C82G A111G A120U A145C C150G C169U U176C | 0.00238
74 | C82G A111G A120U A145C C150G C169U U176G | 0.00221
75 | C82G A111G A120U A145C C150G C169U U176A | 0.00286
76 | C82G A111G A120U A145G C150U C169A | 0.00681
77 | C82G A111G A120U A145G C150U C169U | 0.00611
78 | C82G A111G A120U A145G C150U C169G | 0.00707
79 | C82G A111G A120U A145G C150A | 0.0116
80 | C82G A111G A120U A145G C150U | 0.0498
81 | C82G A111G A120U A145G C150G | 0.0102
82 | C82G A111G A120U A145G C150A U176G | 0.00391
83 | C82G A111G A120U A145G C150A U176A | 0.00897
84 | C82G A111G A120U A145G C150A U176C | 0.00919
